From article PMC8142631

Legend:
[1] = target: endogenous EPCR expressed on EA.hy926 cells (human (endogenous in EA.hy926)) (UniProt Q9UNN8); assay: on-cell western
[2] = target: endogenous EPCR expressed on EA.hy926 cells (human (endogenous in EA.hy926)) (UniProt Q9UNN8); assay: binding to cells, read-out not stated
[3] = target: Soluble wild-type EPCR (endothelial protein C receptor) (UniProt Q9UNN8); assay: ELISA
[4] = target: E86A-sEPCR (soluble EPCR variant) (UniProt Q9UNN8); assay: ELISA
[5] = target: Soluble wild-type EPCR (endothelial protein C receptor) (UniProt Q9UNN8)

For “recombinant CIDRα1.1 domain derived from FCR3 IT4VAR20 PfEMP1 (domain or fragment)”, the Kd [1] was 8 nM, the CIDRα1.1 concentration at complete inhibition of APC binding to endothelial EPCR [2] was 100 nM and the IC50 [2] was 33 nM. For the same substance, the Kd [3] was 4.3 nM, the Kd [4] was 4.4 nM and the CIDRα1.1 concentration at complete inhibition of APC binding to sEPCR [5] was 50 nM. It also gave an IC50 [5] of 12.5 nM.
